Values quoted from earlier work, collected in US7202065B2, “Stabilized liquid preparation of the protease which activates blood coagulation factor VII, or of its proenzyme” (ZLB Behring GmbH, priority 2001, dated 2007).

Conditions: solution containing 20 mM Tris, 0.15 mM NaCI at a pH of 7.5

## proenzyme: proenzyme, which is the non-activated form of the protease which activates blood coagulation factor VII
  loss of activity after enrichment or isolation: rapid loss of activity
